Data as given in patent US10456465B2, “Compositions, kits, and methods for the diagnosis prognosis, monitoring, treatment and modulation of post-transplant lymphoproliferative disorders and hypoxia associated angiogenesis disorders using galectin-1” (Dana-Farber Cancer Institute, Inc., priority 2009, dated 2019).

Experiments:
HUVEC = test: ELISA of VEGF secretion by HUVEC; format: cell-based, human; conditions: HUVEC incubated with Gal1
Procedure: Mouse IFN-γ and IL-10 ELISA sets were from BD Biosciences and mouse IL-17 kit was from R&D. Human soluble VEGF was assessed by ELISA (DY293B; R&D). Soluble Gal1 was determined using an in-house ELISA. Briefly, high binding 96-well microplates (Corning Costar) were coated with capture antibody (2 μg/ml purified rabbit anti-Gal1 polyclonal IgG) in 0.1 M sodium carbonate pH 9.5. After incubation for 18 hours at 4° C., wells were rinsed three times with wash buffer (0.05% Tween-20 in PBS) and incubated for 1 h at RT with blocking solution (2% BSA in PBS). Samples and standards (100 μl) were diluted in 1% BSA and incubated for 18 hours at 4° C. Plates were then washed and incubated with 100 ng/ml biotinylated detection antibody (purified rabbit anti-Gal1 polyclonal IgG) for 1 hour at RT. Plates were rinsed three times before adding horseradish peroxidase-labeled streptavidin (0.33 μg/ml; Sigma) for 30 min at RT. After washing, 100 μl of TMB solution (0.1 mg/ml tetramethylbenzidine and 0.06% H2O2 in citrate-phosphate buffer pH 5) was added to the plates. The reaction was stopped by adding 4N H2SO4. Optical densities were determined at 450 nm in a Multiskan MS microplate reader (Thermo Electron Corporation). A standard curve ranging from 2.5 to 160 ng/ml recombinant Gal1 was run in parallel.

[1] = target: recombinant human Gal1 (rGal1) (Homo sapiens, UniProt P09382); test: Anti-Gal1 mAb neutralization of rGal1-induced apoptosis of activated T cells; format: cell-based; conditions: 10 μM rGal1 pre-incubated with 5 μM mAb; 16 h; Annexin V-FITC/PI
recombinant human Gal1 (rGal1), sequence (P09382 whole entry): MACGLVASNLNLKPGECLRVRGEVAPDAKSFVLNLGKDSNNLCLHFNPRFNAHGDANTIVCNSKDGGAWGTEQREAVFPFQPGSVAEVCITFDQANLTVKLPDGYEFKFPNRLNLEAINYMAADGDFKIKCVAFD
Procedure: Normal T cells were purified and activated with a combination of αCD3 (0.1 μg/ml) and αCD28 (0.5 μg/ml) as previously described (Juszczynski et al. (2007) Proc Natl Acad Sci USA 104:13134-9). Ten μM recombinant human Gal1 (rGal1) was pre-incubated with 5 μM anti-Gal1 mAb 8F4F8G7 or isotype control IgG2b2, (Rockland Immunochemicals Inc., Boyertown, Pa.) or medium alone at 37° C. for 30 min. Thereafter, rGal1+/− antibody was added to in vitro αCD3 and αCD28 activated T cells. After 16 h treatment, cells were harvested for apoptosis analysis using Annexin V-FITC and PI (BD Biosciences, San Jose, Calif.) flow cytometry as previously described (Juszczynski et al. (2007) Proc Natl Acad Sci USA 104:13134-9).

B16 tumors = test: Adoptive transfer of CFSE-labeled T cells or fluorescent beads into B16 tumor-bearing mice; format: in vivo, mouse
Procedure: Wild-type KS cells or shRNA clones (5×10^6 cells) were injected subcutaneously into 6- to 8-week old nude mice. Wild-type B16 cells or shRNA clones (2×10^5 cells) were injected into 6- to 8-week old B6 or B6/Rag^−/− mice and tumor development was monitored as described in Rubinstein et al. (2004) Cancer Cell 5, 241-251. Treatments with 8F4F8G7 mAb or control isotype (2.5, 7.5 or 15 mg/kg; i.p. injections every three days) were initiated when tumors reached 100 mm^3. Mice were sacrificed when tumors reached a volume greater than 2 cm^3. At 2 weeks after tumor challenge, lymph node cells (5×10^5 cells/well) were restimulated for 72 h with 1×10^4 irradiated (4,000 rads) B16 cells and were analyzed for proliferation and cytokine production. For adoptive transfer, splenic T cells (5×10^6) from tumor-bearing mice were labeled with CFSE (Molecular Probes) and injected through the tail vein into tumor-bearing recipient mice treated with 8F4F8G7 or control mAb. In related studies, fluorescent beads (3 μm; BD Biosciences), rather than splenic T cells, were injected into tumor-bearing animals treated with 8F4F8G7 or control antibody. CFSE^+ cells or PerCP-labeled beads were analyzed after 24 h or 15 min respectively by flow cytometry in tumor parenchyma and spleen.

KS tumors = test: KS xenograft in nude mice; format: in vivo
Procedure: HUVEC transfected or not with specific siRNA or pre-incubated with signaling pathway inhibitors were exposed to VEGF or Gal1 with or without lactose, sucrose, 8F4F8G7 mAb or control isotype (IgG1κ) or specific antibodies for VEGFR1 (AP-MAB0702; Abcam), VEGFR2 (AF357; R&D), VEGFR3 (AB89501; Abcam) or VEGF (MAB293; R&D). Cells were processed for proliferation, migration, invasion and tube formation assays. Tumor-associated blood vessels were identified by flow cytometry using Alexa Fluor 647-conjugated anti-CD34 antibody (RAM34; eBioscience).
Wild-type KS cells or shRNA clones (5×10^6 cells) were injected subcutaneously into 6- to 8-week old nude mice. Wild-type B16 cells or shRNA clones (2×10^5 cells) were injected into 6- to 8-week old B6 or B6/Rag^−/− mice and tumor development was monitored as described in Rubinstein et al. (2004) Cancer Cell 5, 241-251. Treatments with 8F4F8G7 mAb or control isotype (2.5, 7.5 or 15 mg/kg; i.p. injections every three days) were initiated when tumors reached 100 mm^3. […] At 2 weeks after tumor challenge, lymph node cells (5×10^5 cells/well) were restimulated for 72 h with 1×10^4 irradiated (4,000 rads) B16 cells and were analyzed for proliferation and cytokine production. […] CFSE^+ cells or PerCP-labeled beads were analyzed after 24 h or 15 min respectively by flow cytometry in tumor parenchyma and spleen.

Row | Molecule | VEGF secretion (HUVEC) | rGal1-induced apoptosis of αCD3/αCD28-activated T cells [1] | T cells reaching tumor parenchyma (increase) (B16 tumors; CFSE-labeled T cells, vs control isotype) | number of CFSE+ T cells in spleens (B16 tumors; recipient mice) | access of fluorescently-labeled beads to the tumor parenchyma (B16 tumors; vs isotype-treated mice, 15 min) | tumor microvasculature (KS tumors; CD34+ ECs and tumor hemoglobin content, vs isotype control) | tumor growth (KS tumors; established KS tumors, 2.5, 7.5 or 15 mg/kg i.p. every three days)
1 | rGal1: recombinant human galectin-1 | lack of effects |  |  |  |  |  | 
2 | anti-Gal1 monoclonal antibody 8F4F8G7 (antibody, V domains shown, Murine hybridoma mAb (deposit PTA-10535), lambda light chain; also called 14-19 8F4-F8-G7; clone 8F4.8F.67) VH: EVQLQQSVAEFVRPGASVRLSCTASGFNIKNTYIHWVRQRPEQGLEWIGKIDPANGNTKYVPEFQGKATMTADTSSNTVYLHLSSLTSEDTAIYYCVDGYYGWYFAVWGTGTTVTVSS VL: QAVVTQESALTTSPGETVTLTCRSSTGAVTTSNYANWVQEKPDHLFTGLIGATNNRAPGVPARFSGSLIGDKAVLTITGAQTEDEAIYFCALWYRNHFIFGSGTKVTVL |  | almost completely inhibited | 3 fold | no differences | increased access | significant reduction | dose-dependent delay
